According to publication PMC2811193, “Complementary Roles in Cancer Prevention: Protease Inhibitor Makes the Cancer Preventive Peptide Lunasin Bioavailable” (PLoS ONE, 2010):

How the values were obtained:
MDA-MB-231 tumors = experiment: In situ TUNEL assay for apoptosis in xenograft tumor sections; format: in vivo, athymic NCr-nu/nu mice; conditions: lunasin 20 and 4 mg/kg (P = 0.0088, 0.0141 vs control), BBI 20 mg/kg i.p.
Description: In situ terminal deoxynucleotidyl transferase-mediated dUTP nick end labeling (TUNEL) assay was performed using ApopTag Detection Kit (Millipore, USA & Canada) and ran based on the manufacturer's protocol. Briefly, deparaffinized and rehydrated sections were pretreated with 20 µg/mL proteinase K for 15 min and incubated with terminal transferase and digoxigenin dUTP at 37°C for 1 h. After washing, sections were incubated with antidigoxigenin rhodamine (Millipore) and DAPI (Invitrogen), and slides were visualized by fluorescent microscopy (Axiophot 381). The apoptotic cells were calculated as percentage of positive cells over total number of cells counted in microscope at 400× magnification.

[1] = tested on: Pancreatin from porcine pancreas; experiment: In vitro digestion of lunasin with pancreatin, with or without protease inhibitors; format: in vitro ADME; conditions: inhibitor 18,000 ng, lunasin 600 ng, pancreatin 600 ng, 1 h at 37°C; also after heat denaturation of the inhibitor
Description: Figure 2 Soy-derived BBI and KTI protect synthetic lunasin from in vitro digestion. The upper, lighter bands are Coomassie Blue protein stains and the lower, darker bands are Western blots. (M) Markers, (1) Lunasin (600 ng) + pancreatin (600 ng) incubated for 0 h at 37°C, (2) Lunasin (600 ng) + pancreatin (600 ng) incubated for 1 h at 37°C, (3) Lunasin (600 ng) + BBI (18,000 ng, unboiled) + pancreatin (600 ng) incubated for 1 h at 37°C, (4). Lunasin (600 ng) + KTI (18,000 ng, unboiled) + pancreatin (600 ng) incubated for 1 h at 37°C, (5) Lunasin (600 ng) + BBI (18,000 ng, boiled) + pancreatin (600 ng) incubated for 1 h at 37°C, (6) Lunasin (600 ng)+KTI (18,000 ng, boiled) + pancreatin (600 ng) incubated for 1 h at 37°C, (7) BBI (unboiled), (8) KTI (unboiled).
In vitro digestion of lunasin was carried out following the method published in the United States Pharmacopeia. Synthetic lunasin (American Peptide Company, Inc. Sunnyvale, CA, USA) (5 µg) was incubated with the protease inhibitors BBI or KTI (Sigma, St. Louis, MO, USA) for 30 min at 25°C. Pancreatin from porcine pancreas (Sigma) was added (enzyme∶protein ratio of 1∶10) and solution was incubated at 37°C for 1 h. Tris-tricine sample buffer was added at the end of the reaction and immediately stopped by placing the tubes in a boiling water bath for 5 min. The digests were analyzed by SDS-PAGE and Western-Blot following the protocol previously described.

[2] = tested on: Ki-67 expression in MDA-MB-231 tumors; experiment: Immunohistochemical staining of xenograft tumor sections for Ki-67 labeling index; format: in vivo, athymic NCr-nu/nu mice; conditions: 20 mg/kg body weight i.p.; tumors collected 7 weeks after cells injection
Description: Sections were evaluated for tumor cell cytology, growth pattern, necrosis and apoptosis. The 5 µm sections were deparaffinized and rehydrated and antigens were retrieved using citrate buffer (pH 6.0) before endogenous peroxidase activity was blocked. Proliferation was shown using an antibody against Ki-67 (MIB-1; DakoCytomation, Glostrup, Denmark, dilution 1∶75). Antigen expression was expressed using streptavidin conjugated to horseradish peroxidase and visualized by diaminobenzidine chromogen reagent (DakoCytomation). All immunohistochemistry slides were examined by light microscopy (Axiophot 381, Zeiss, Germany). Ki-67 labeling index was calculated as percentage of positive cells over total number of cells counted in microscope at 400× magnification.

[3] = tested on: MDA-MB-231 tumor xenografts; experiment: Breast cancer prevention in MDA-MB-231 xenograft mouse model; format: in vivo, athymic NCr-nu/nu mice
Description: Human MDA-MB-231 breast cancer cells were obtained from ATCC and grown in Leibovitz's L-15 Medium supplemented with 10% FBS, 100 unit/ml penicillin, and 100 µg/ml streptomycin (Invitrogen), in a humidified atmosphere at 37°C.
Mice protocol was approved by ACUC (University of California, Berkeley, CA, USA). Thirty-two six weeks-old athymic NCr-nu/nu mice (National Cancer Institute, Frederick, MD, USA) were acclimatized for 1 week and randomly divided into four groups (n = 8): control group (receiving PBS), BBI-group (receiving BBI at 20 mg/kg body weight), and two lunasin-groups (receiving synthetic lunasin [Chengdu KaiJie Bio-Pharmaceutical Co., Chengdu, P.R. China] at 20 mg/kg body weight and 4 mg/kg body weight). After two months of i.p. treatment three times a week, mice were injected subcutaneously in the right flank with 1×10^7 MDA-MB-231 cells suspended in 0.1 ml of Matrigel Basement Membrane Matrix (Becton Dickinson, Bedford, MA, USA). Tumor growth was monitored by palpation, and the onset when tumors were detectable was noted. Tumor size was measured with calipers, and tumor volume was calculated assuming the shape as ellipsoid. Tumor incidence in percentage was calculated as the number of tumor-bearing mice divided by the total number of mice in each group, whereas tumor generation was calculated as the total number of tumors divided by total number of mice in each group. The volume of the tumor was determined using the following formula: tumor volume = length × width^2 ×0.523 [41].
At the end of the experiment, animals were sacrificed, and tumors were dissected and weighed. Individual tumors were split for fixation in the Shando Glyo-Fixx™ (Thermo Scientific, Pittsburgh, PA, USA) for histological examination. The paraffin-embedded sections were stained with hematoxylin and eosin (H&E).

[4] = tested on: DMBA-induced NIH3T3 cells; experiment: Foci formation assay in DMBA-induced NIH3T3 cells; format: cell-based; conditions: 100 nM peptide; 1.5 µg/ml DMBA; 6 weeks; n = 6
Description: The foci formation assay was performed according to Reznikoff et al. NIH3T3 cells were obtained from American Type Culture Collection (ATCC) and cultured in RPMI 1640 medium supplemented with 10% fetal bovine serum (FBS) (Invitrogen, Carlsbad, CA, USA). Cells were plated at a density of 500 cells/well in 12-well plates, incubated overnight at 37°C and treated with lunasin or BBI for 4 hrs. Then, cells were treated with 1.5 µg/ml DMBA for 20 hrs. After washing with PBS, fresh medium was added. Peptides were added and medium was changed every week for 6 weeks. At the end of experiment, cells were washed with 0.9% NaCl, fixed with methanol, stained with Giemsa, and scored for transformed foci. The negative control was a set of cells receiving no DMBA, while the positive control consisted of cells induced by DMBA but without treatment.

Row | Molecule | TUNEL-positive apoptotic cells in tumors (MDA-MB-231 tumors) | protection of lunasin from in vitro digestion with pancreatin [1] | reduction of Ki-67 expression compared with the control group [2] | tumor incidence (mice showing tumors) ([3]; 20 mg/kg body weight i.p. three times a week, seven weeks post-cells injection, n = 8) | tumor incidence lower compared with the control ([3]; 20 mg/kg body weight i.p., seven weeks post-cells injection) | tumor generation ([3]; 20 mg/kg body weight i.p., versus vehicle-treated group) | body weight ([3]; i.p. three times a week, BBI 20 mg/kg, lunasin 20 and 4 mg/kg body weight, compared among the four groups, n = 8) | reduction of foci formation [4]
1 | BBI: polypeptide of 71 amino acids with the ability to inhibit the serine proteases trypsin and chymotrypsin (protein, UniProt P01055 40-110, looked up) Bowman-Birk type proteinase …: DDESSKPCCDQCACTKSNPPQCRCSDMRLNSCHSACKSCICALSYPAQCFCVDITDFCYEPCKPSEDDKEN | Few TUNEL-positive cells | protect lunasin from digestion | no significant difference | 88% | no effect | ineffective | No significant differences | 60%
2 | KTI: soy Kunitz Trypsin Inhibitor, a protease inhibitor contained in soybean (protein, UniProt P01070 25-205, looked up) Trypsin inhibitor A: DFVLDNEGNPLENGGTYYILSDITAFGGIRAAPTGNERCPLTVVQSRNELDKGIGTIISSPYRIRFIAEGHPLSLKFDSFAVIMLCVGIPTEWSVVEDLPEGPAVKIGENKDAMDGWFRLERVSDDEFNNYKLVFCPQQAEDDKCGDIGISIDHDDGTRRLVVSKNKPLVVQFQKLDKESL |  | protect lunasin from digestion |  |  |  |  |  | 
